# Laboratory results as given in article PMC8287571.
# pKd: −log10 of the molar value.
# Experiments:
# [1] = tested on: GST:RBD (Arabidopsis thaliana); experiment: EMSA; conditions: EMSA: 5 ng RNA in 10 ul Union Buffer (100 mM Tris-HCl pH 8.0, 1 M NaCl, 8 U RiboLock (so in the source)), 30 min at 4 C, 1.2% agarose; northwestern: 10 mM Tris-HCl pH …
# [2] = tested on: GST:atALKBH9B wt (Arabidopsis thaliana); experiment: EMSA; conditions: EMSA: 5 ng RNA in 10 ul Union Buffer (100 mM Tris-HCl pH 8.0, 1 M NaCl, 8 U RiboLock (so in the source)), 30 min at 4 C, 1.2% agarose; northwestern: 10 mM Tris-HCl pH …
substance,measurement,setting,value
3'UTR transcript of AMV RNA3/4,pKd,[1],6.19
same,pKd,[2],6.52
